Consider 3 molecules from patent US20090036380A1 (YEDA RESEARCH AND DEVELOPMENT, published 2009).

Test [1] concerns the target T1, full length Karet protein (RRS bait) (mouse, UniProt Q8K2Y9 1-453).
T1 construct: Yeast RRS construct; fusion partner not described; also called whole Karet protein
Briefly: RRS screen in yeast, whole Karet protein against an embryonic mouse brain library. From the text: The Ras rescue system (RRS) method is based on translocation of a mammalian cytoplasmic Ras to the plasma membrane, resulting in activation of a viability pathway in yeast (Broder, Y. C., S. Katz, and A. Aronheim. Curr Biol, 1998. 8 (20): p. 1121-4; Aronheim, A. Methods Mol Biol, 2004. 250: p. 251-62; Hubsman, M., G. et al. Nucleic Acids Res, 2001. 29 (4): p. E18).

Test [2] concerns the target T2, recombinant PTB-domain containing Karet(1-228) truncation mutant (mouse, UniProt Q8K2Y9 1-228).
T2 construct: Recombinant protein for in-vitro precipitation; also called recombinant Karet protein; Karet PTB domain
T2 sequence: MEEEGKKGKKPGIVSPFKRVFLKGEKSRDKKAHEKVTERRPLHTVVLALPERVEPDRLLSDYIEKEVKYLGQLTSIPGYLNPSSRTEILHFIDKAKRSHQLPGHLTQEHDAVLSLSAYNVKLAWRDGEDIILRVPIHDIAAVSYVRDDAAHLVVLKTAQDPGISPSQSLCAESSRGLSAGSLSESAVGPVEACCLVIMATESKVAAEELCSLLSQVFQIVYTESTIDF
Briefly: in-vitro precipitation with biotinylated peptide on streptavidin beads, blot anti-His.

Ends that are not written are not given here.

B1: Cysteine and glycine-rich protein 1 (Csrp1), mRNA (other, mouse, UniProt P97315 1-193, looked up)
chain: MPNWGGGKKCGVCQKTVYFAEEVQCEGNSFHKSCFLCMVCKKNLDSTTVAVHGEEIYCKSCYGKKYGPKGYGYGQGAGTLSTDKGESLGIKHEEAPGHRPTTNPNASKFAQKIGGSERCPRCSQAVYAAEKVIGAGKSWHKSCFRCAKCGKGLESTTLADKDGEIYCKGCYAKNFGPKGFGFGQGAGALVHSE
notes: RRS library clone (embryonic mouse brain)
Regarding B1, in test [1], the binding result is “binds”.

B2: biotinylated synthetic TrkA juxtamembrane region peptide, position 458-484 (peptide)
peptide: MSLHFMTLGGSSLSPTEGKGSGLQGHI
modifications: also: biotinylated (position not given here)
notes: Immobilized on streptavidin beads; also called TrkA peptide
Take B2: the binding result in test [2] is given as “binds”.

B3: Cyclin D1, mRNA (other, mouse, UniProt P25322 1-295, looked up)
chain: MEHQLLCCEVETIRRAYPDTNLLNDRVLRAMLKTEETCAPSVSYFKCVQKEIVPSMRKIVATWMLEVCEEQKCEEEVFPLAMNYLDRFLSLEPLKKSRLQLLGATCMFVASKMKETIPLTAEKLCIYTDNSIRPEELLQMELLLVNKLKWNLAAMTPHDFIEHFLSKMPEADENKQTIRKHAQTFVALCATDVKFISNPPSMVAAGSVVAAMQGLNLGSPNNFLSCYRTTHFLSRVIKCDPDCLRACQEQIEALLESSLRQAQQNVDPKATEEEGEVEEEAGLACTPTDVRDVDI
notes: as for B1
In the case of B3, in test [1], the binding result is on record as “binds”.
